Data published in patent US20100273722A1, “MODIFIED MINIATURE PROTEINS” (Yale University, priority 2007, published 2010).

Target: Down-regulated Hck kinase (containing an N-terminal His6 tag)
Assay: cell-based or functional assay

With HIV Nef protein the Activity (nmol · sec^-1), activator at 50 micromolar (nmol · sec^-1) was 232 and the Fold-Activation, activator at 50 micromolar was 21 fold.
